# Laboratory results from PMC9888213, “The Mobility of the Cap Domain Is Essential for the Substrate Promiscuity of a Family IV Esterase from Sorghum Rhizosphere Microbiome” (Applied and Environmental Microbiology, 2023).
# Columns and labels:
# Experiment in all cases: purified protein
# Format in all cases: biochemical, uncultured Sphingomonas sp.
# [1] = test system: T1, CCCC(=O)Oc1ccc([N+](=O)[O-])cc1; conditions: 50 mM potassium phosphate pH 7.0, 0.3% Triton X-100, 30 °C, up to 5% DMSO-acetonitrile
# T1 construct: full length, 324 residues, N-terminal His6 tag (p15TV-L), expressed in E. coli BL21(DE3), Ni-NTA purified; homodimer
# [2] = test system: T2, CC(=O)Oc1ccc([N+](=O)[O-])cc1; conditions: 50 mM potassium phosphate pH 7.0, 0.3% Triton X-100, 30 °C, up to 5% DMSO-acetonitrile
# T2 construct: full length, 324 residues, N-terminal His6 tag (p15TV-L), expressed in E. coli BL21(DE3), Ni-NTA purified; homodimer
# [3] = test system: T3, CCCCCCCCCCCC(=O)Oc1ccc([N+](=O)[O-])cc1; conditions: 50 mM potassium phosphate pH 7.0, 0.3% Triton X-100, 30 °C, up to 7.5% DMSO-acetonitrile
# T3 construct: full length, 324 residues, N-terminal His6 tag (p15TV-L), expressed in E. coli BL21(DE3), Ni-NTA purified; homodimer
substance,measurement,setting,value
EH0 (uncultured Sphingomonas sp.),Km,[1],1080 ± 180 µM
same,Vmax,[1],253 µM/min
same,kcat,[1],0.602 ± 0.033 s⁻¹
same,kcat/Km,[1],558 M⁻¹ s⁻¹
same,Km,[2],1610 ± 120 µM
same,Vmax,[2],292 µM/min
same,kcat,[2],0.694 ± 0.0182 s⁻¹
same,kcat/Km,[2],430 M⁻¹ s⁻¹
same,Km,[3],1000 ± 280 µM
same,Vmax,[3],25.6 µM/min
same,kcat,[3],0.0608 ± 0.00433 s⁻¹
same,kcat/Km,[3],61 M⁻¹ s⁻¹
